Results from doi:10.1101/2022.02.08.479534, “FoxP3 can fold into two distinct dimerization states with divergent functional implications for T cell homeostasis”.

Columns and labels:
NusA-FoxP4RBR-forkhead = target: T1, NusA-FoxP4RBR-forkhead (Mus musculus, UniProt Q9DBY0 418-577); experiment: EMSA; equal to sFKHM; EMSA: 0.2 uM DNA, 20 mM Tris pH 7.5, 150 mM NaCl, 1.5 mM MgCl2, 2 mM DTT, 30 min at 4 C; anti-HA bead DNA pull-down: 20 min at room temperature; the EMSA IR-FKHM4g length is taken as 31 bp; conditions: protein: recombinant; tags: His6-NusA; blunt
T1 sequence: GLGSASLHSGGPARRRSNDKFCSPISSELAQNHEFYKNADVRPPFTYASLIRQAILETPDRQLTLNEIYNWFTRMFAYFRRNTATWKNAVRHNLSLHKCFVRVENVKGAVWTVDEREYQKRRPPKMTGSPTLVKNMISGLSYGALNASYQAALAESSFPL

NusA-FoxP2RBR-forkhead = target: T2, NusA-FoxP2RBR-forkhead (Mus musculus, UniProt P58463 447-588); experiment: as above; conditions: protein: recombinant; tags: His6-NusA; blunt
T2 sequence: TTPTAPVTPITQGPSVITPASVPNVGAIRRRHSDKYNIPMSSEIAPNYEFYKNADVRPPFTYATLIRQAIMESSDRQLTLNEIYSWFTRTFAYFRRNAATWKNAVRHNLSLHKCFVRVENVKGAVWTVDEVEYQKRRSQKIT

NusA-FoxP1RBR-forkhead = target: T3, NusA-FoxP1RBR-forkhead (Mus musculus, UniProt P58462 433-579); experiment: as above; conditions: protein: recombinant; tags: His6-NusA; blunt
T3 sequence: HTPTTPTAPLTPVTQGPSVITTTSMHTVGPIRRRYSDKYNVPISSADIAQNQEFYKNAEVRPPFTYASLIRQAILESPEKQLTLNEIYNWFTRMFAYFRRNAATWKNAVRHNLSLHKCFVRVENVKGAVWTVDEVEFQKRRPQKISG

FoxP3ZF-CC = target: T4, FoxP3ZF-CC (Mus musculus, UniProt Q99JB6 188-284); experiment: EMSA; up to 4 uM; barely detectable; EMSA: 0.2 uM DNA, 20 mM Tris pH 7.5, 150 mM NaCl, 1.5 mM MgCl2, 2 mM DTT, 30 min at 4 C; anti-HA bead DNA pull-down: 20 min at room temperature; the EMSA IR-FKHM4g length is taken as 31 bp; conditions: protein: recombinant; blunt
T4 sequence: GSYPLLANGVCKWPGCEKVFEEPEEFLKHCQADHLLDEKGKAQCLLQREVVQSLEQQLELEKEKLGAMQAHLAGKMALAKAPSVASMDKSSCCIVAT

FoxP3ΔN'' = target: T5, FoxP3ΔN'' (Mus musculus, UniProt Q99JB6 204-417, C217S;C231S;del277-314); experiment: EMSA; EMSA: 0.2 uM DNA, 20 mM Tris pH 7.5, 150 mM NaCl, 1.5 mM MgCl2, 2 mM DTT, 30 min at 4 C; anti-HA bead DNA pull-down: 20 min at room temperature; the EMSA IR-FKHM4g length is taken as 31 bp; conditions: protein: recombinant; tags: His6-NusA cleaved; chain copies: 2; blunt
T5 sequence: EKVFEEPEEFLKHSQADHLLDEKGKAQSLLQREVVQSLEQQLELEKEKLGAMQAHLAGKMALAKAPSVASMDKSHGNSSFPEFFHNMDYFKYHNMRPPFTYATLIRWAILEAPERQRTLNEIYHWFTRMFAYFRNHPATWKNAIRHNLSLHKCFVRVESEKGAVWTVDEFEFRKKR

NusA-FoxP3RBR-forkhead = target: T6, NusA-FoxP3RBR-forkhead (Mus musculus, UniProt Q99JB6 284-423); experiment: as above; conditions: protein: recombinant; tags: His6-NusA; blunt
T6 sequence: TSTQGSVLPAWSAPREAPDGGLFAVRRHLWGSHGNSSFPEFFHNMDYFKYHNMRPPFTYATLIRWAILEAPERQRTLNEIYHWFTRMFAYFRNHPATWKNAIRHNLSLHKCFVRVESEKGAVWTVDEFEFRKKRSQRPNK

FoxP3ΔN' = target: T7, FoxP3ΔN' (Mus musculus, UniProt Q99JB6 204-417, C217S;C231S;del277-304); experiment: as above; conditions: protein: recombinant; tags: His6-NusA cleaved; chain copies: 2; blunt
T7 sequence: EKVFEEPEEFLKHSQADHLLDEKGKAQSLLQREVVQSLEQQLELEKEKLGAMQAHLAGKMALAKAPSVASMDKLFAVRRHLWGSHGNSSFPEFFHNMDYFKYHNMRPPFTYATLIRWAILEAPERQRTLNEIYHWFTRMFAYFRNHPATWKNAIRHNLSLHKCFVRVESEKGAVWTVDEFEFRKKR

[1] = target: T8, NusA-FoxP3RBR-forkhead A372G (Mus musculus, UniProt Q99JB6 284-423, A372G); experiment: as above; conditions: protein: recombinant; tags: His6-NusA; blunt
T8 sequence: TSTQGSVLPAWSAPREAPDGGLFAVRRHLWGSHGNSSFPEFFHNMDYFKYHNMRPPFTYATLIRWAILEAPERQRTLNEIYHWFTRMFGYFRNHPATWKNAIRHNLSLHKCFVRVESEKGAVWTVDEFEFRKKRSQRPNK

B1: IR-FKHM4g (31bp) (dsDNA)
DNA 1: TTAGGAAAATTTGTTTACTCGAGTAAACAAA
DNA 2: TTTGTTTACTCGAGTAAACAAATTTTCCTAA
binding result (NusA-FoxP4RBR-forkhead): binds | binding result (NusA-FoxP2RBR-forkhead): binds | binding result (NusA-FoxP1RBR-forkhead): binds | binding result (FoxP3ZF-CC): no binding | binding result (FoxP3ΔN''): binds | binding result (NusA-FoxP3RBR-forkhead): binds | binding result (FoxP3ΔN'): binds | binding result [1]: binds
